Results from the Immune Epitope Database (IEDB).

Legend:
HLA-A*02:01 [1] = test: IEDB peptide-MHC binding, purified MHC/competitive/radioactivity; filed as Kd, often an IC50 or EC50 that approximates it; ≥ and ≤ were set here for values at or beyond the usual limits of such assays
HLA-B*15:01 = test: as above
HLA-B*07:02 = test: as above
HLA-A*24:02 [2] = test: IEDB peptide-MHC binding, purified MHC/competitive/fluorescence; ≥ and ≤ were set here for values at or beyond the usual limits of such assays
HLA-A*30:02 = test: IEDB peptide-MHC binding, purified MHC/competitive/radioactivity; filed as Kd, often an IC50 or EC50 that approximates it; ≥ and ≤ were set here for values at or beyond the usual limits of such assays
HLA-A*32:01 = test: as above
HLA-A*29:02 = test: as above
HLA-A*30:01 = test: as above
HLA-A*01:01 = test: as above
HLA-A*26:01 [3] = test: as above
HLA-B*48:01 = test: IEDB peptide-MHC binding, purified MHC/direct/fluorescence; filed as Kd, often an IC50 or EC50 that approximates it; ≥ and ≤ were set here for values at or beyond the usual limits of such assays; conditions: source organism: Listeria monocytogenes serotype 4b str. H7858
HLA-B*08:01 = test: IEDB peptide-MHC binding, purified MHC/competitive/radioactivity; filed as Kd, often an IC50 or EC50 that approximates it; ≥ and ≤ were set here for values at or beyond the usual limits of such assays; conditions: source organism: Dengue virus 1 Nauru/West Pac/1974
HLA-A*26:01 [4] = test: IEDB peptide-MHC binding, purified MHC/direct/fluorescence; filed as Kd, often an IC50 or EC50 that approximates it; ≥ and ≤ were set here for values at or beyond the usual limits of such assays; conditions: source organism: Mammarenavirus juninense
HLA-A*68:02 = test: IEDB peptide-MHC binding, purified MHC/competitive/radioactivity; filed as Kd, often an IC50 or EC50 that approximates it; ≥ and ≤ were set here for values at or beyond the usual limits of such assays
HLA-B*35:01 = test: as above; conditions: source organism: Dengue virus 4 Philippines/H241/1956
HLA-B*53:01 = test: as above
HLA-A*03:01 = test: as above; conditions: source organism: Dengue virus 4 Philippines/H241/1956
HLA-A*11:01 = test: as above; conditions: source organism: Dengue virus 4 Philippines/H241/1956
HLA-A*68:01 = test: as above; conditions: source organism: Dengue virus 4 Philippines/H241/1956
HLA-A*31:01 = test: as above; conditions: source organism: Dengue virus 4 Philippines/H241/1956
HLA-A*02:01 [5] = test: IEDB peptide-MHC binding, purified MHC/competitive/fluorescence; ≥ and ≤ were set here for values at or beyond the usual limits of such assays
HLA-A*23:01 = test: IEDB peptide-MHC binding, purified MHC/competitive/radioactivity; filed as Kd, often an IC50 or EC50 that approximates it; ≥ and ≤ were set here for values at or beyond the usual limits of such assays
HLA-A*24:02 [6] = test: as above; conditions: source organism: Dengue virus 1 Brazil/97-11/1997
HLA-B*51:01 = test: as above; conditions: source organism: Dengue virus 2 Jamaica/1409/1983
HLA-A*26:01 [7] = test: IEDB peptide-MHC binding, purified MHC/competitive/fluorescence; filed as Kd, often an IC50 or EC50 that approximates it; ≥ and ≤ were set here for values at or beyond the usual limits of such assays
HLA-A*02:02 = test: IEDB peptide-MHC binding, purified MHC/competitive/radioactivity; filed as Kd, often an IC50 or EC50 that approximates it; ≥ and ≤ were set here for values at or beyond the usual limits of such assays; conditions: source organism: Hepacivirus hominis
HLA-A*02:06 = test: as above; conditions: source organism: Hepacivirus hominis
HLA-A*02:03 = test: as above; conditions: source organism: Hepacivirus hominis
[8] = source organism: Vaccinia virus WR
[9] = source organism: Dengue virus 1 Brazil/97-11/1997
[10] = source organism: Dengue virus 3 Martinique/1243/1999
[11] = source organism: Mammarenavirus brazilense
[12] = source organism: Dengue virus 1 Nauru/West Pac/1974
[13] = source organism: Dengue virus 3 Sri Lanka/1266/2000
[14] = source organism: Dengue virus 4 Philippines/H241/1956
[15] = source organism: Sudan ebolavirus
[16] = source organism: Dengue virus 2 Jamaica/1409/1983
[17] = source organism: Hepacivirus hominis
[18] = source organism: Lymphocytic choriomeningitis virus (strain Armstrong)

MMCYFLTATP
Kd (HLA-A*02:01 [1]; [8]): 18 nM

KQERGKSLLF
Kd (HLA-B*15:01; [9]): 118 nM

TPTGTVMDII
Kd (HLA-B*07:02; [10]): 219 nM

EIAKYGHSF
Kd (HLA-B*15:01; [8]): 57.6 nM

IYTSGKRSN
IC50 (HLA-A*24:02 [2]; source organism: Zaire ebolavirus): 6370 nM

TADDITMGY
Kd (HLA-A*30:02; [11]): 9930 nM
Kd (HLA-A*32:01; [11]): ≥ 77800 nM
Kd (HLA-A*29:02; [11]): 11300 nM
Kd (HLA-A*30:01; [11]): ≥ 78100 nM
Kd (HLA-A*01:01; [11]): 18.8 nM
Kd (HLA-A*26:01 [3]; [11]): 4700 nM

AEFNEDGLL
Kd (HLA-B*48:01): ≥ 20000 nM

RARNRVSTV
Kd (HLA-B*08:01): 9.01 nM
Kd (HLA-B*07:02; [12]): 2.62 nM
Kd (HLA-A*30:01; [12]): 23 nM

ESFDLAGLF
Kd (HLA-A*26:01 [4]): 1.3 nM

TVAAMGVPPL
Kd (HLA-A*30:01; [13]): 3210 nM
Kd (HLA-A*68:02; [13]): 19.8 nM
Kd (HLA-A*26:01 [3]; [13]): 12200 nM

TPEGIIPTLF
Kd (HLA-B*35:01): 93.5 nM
Kd (HLA-B*07:02; [14]): 920 nM
Kd (HLA-B*53:01; [14]): 38.1 nM

LPEYGTLGL
Kd (HLA-B*07:02; [10]): 40.1 nM
Kd (HLA-B*53:01; [10]): 545 nM

SMRKTDWLPM
Kd (HLA-B*15:01; [10]): 134 nM

QAVNNLVEL
Kd (HLA-A*02:01 [1]; source organism: Lassa virus Josiah): 4570 nM

GAQHSTTLF
IC50 (HLA-A*24:02 [2]; [15]): 42100 nM

KTFDTEYPK
Kd (HLA-A*03:01): 26.1 nM
Kd (HLA-A*32:01; [14]): 2800 nM
Kd (HLA-A*11:01): 126 nM
Kd (HLA-A*30:01; [14]): 80 nM
Kd (HLA-A*68:01): 104 nM
Kd (HLA-A*31:01): 29.8 nM

GLITCKAFG
IC50 (HLA-A*24:02 [2]; [8]): ≥ 168000 nM
IC50 (HLA-A*02:01 [5]; [8]): 60500 nM

KLFMALVAF
Kd (HLA-A*32:01; [16]): 37.8 nM
Kd (HLA-B*15:01; [16]): 198 nM
Kd (HLA-A*23:01; [16]): 4740 nM

VLTGGVTLFF
Kd (HLA-A*24:02 [6]): 1610 nM
Kd (HLA-B*15:01; [9]): 194 nM

QPATLRKYCI
Kd (HLA-B*07:02; [16]): 660 nM
Kd (HLA-B*51:01): ≥ 26100 nM

SIIGILHLI
Kd (HLA-A*26:01 [7]; source organism: Influenza A virus (A/Memphis/1/1978(H1N1))): 13000 nM

HIVYAVPLM
Kd (HLA-A*26:01 [7]; source organism: Bacillus anthracis str. A0488): 8.2 nM

FSAWISHRP
IC50 (HLA-A*24:02 [2]; source organism: Variola virus): 517 nM
IC50 (HLA-A*02:01 [5]; source organism: Variola virus): 38100 nM

MMLKLLTDF
Kd (HLA-A*32:01; [12]): 56.7 nM
Kd (HLA-B*15:01; [12]): 11.5 nM
Kd (HLA-A*23:01; [12]): 357 nM

TTQALQLFL
IC50 (HLA-A*24:02 [2]; [15]): 6610 nM
IC50 (HLA-A*02:01 [5]; [15]): 10600 nM

LYLVDYGLV
IC50 (HLA-A*24:02 [2]; [8]): 212 nM
IC50 (HLA-A*02:01 [5]; [8]): ≥ 89800 nM

ALALEEKRRL
Kd (HLA-A*68:02; source organism: Homo sapiens): ≥ 63800 nM
Kd (HLA-A*02:01 [1]; source organism: Homo sapiens): 12200 nM

KLSGLGFNAV
Kd (HLA-A*02:02): 5.4 nM
Kd (HLA-A*68:02; [17]): 6110 nM
Kd (HLA-A*02:06): 24.5 nM
Kd (HLA-A*02:01 [1]; [17]): 19.3 nM
Kd (HLA-A*02:03): 2.8 nM

DSEEYHLLY
Kd (HLA-A*30:02; [18]): 3750 nM
Kd (HLA-A*32:01; [18]): ≥ 77800 nM
Kd (HLA-A*29:02; [18]): 289 nM
Kd (HLA-A*30:01; [18]): 11300 nM
Kd (HLA-A*01:01; [18]): 2.78 nM
Kd (HLA-A*26:01 [3]; [18]): 14400 nM
